Experimental data from patent publication US20180043014A1 (CELLDEX THERAPEUTICS, published 2018).

Biological target: T1, CG56972-ECD, recombinant human GPNMB extracellular domain (aa 23-480), GPNMB-V5His (human, UniProt Q14956 23-492)
T1 construct: Expressed in HEK293 cells; also called GPNMB-V5His immunogen; purified CG56972-ECD protein; not shown: The tag would matter only for the xV5 reagent, not for the anti-GPNMB antibodies
T1 sequence: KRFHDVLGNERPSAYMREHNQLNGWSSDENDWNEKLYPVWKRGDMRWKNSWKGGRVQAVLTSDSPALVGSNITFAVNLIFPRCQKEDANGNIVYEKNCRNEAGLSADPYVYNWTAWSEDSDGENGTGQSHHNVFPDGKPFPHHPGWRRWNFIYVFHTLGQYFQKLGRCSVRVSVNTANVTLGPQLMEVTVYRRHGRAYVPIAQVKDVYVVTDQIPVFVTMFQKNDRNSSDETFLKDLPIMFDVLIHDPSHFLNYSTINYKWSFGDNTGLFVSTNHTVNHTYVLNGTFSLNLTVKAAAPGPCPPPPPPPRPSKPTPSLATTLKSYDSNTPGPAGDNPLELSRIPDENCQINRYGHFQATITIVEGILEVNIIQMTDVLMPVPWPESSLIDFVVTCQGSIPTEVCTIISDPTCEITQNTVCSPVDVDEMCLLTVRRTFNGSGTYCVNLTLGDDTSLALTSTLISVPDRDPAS
Test: method not stated; purified CG56972-ECD protein

Kd: 0.052 µM
B1: CR011, fully human monoclonal antibody Mab 1.15.1 (IgG2) (antibody, V domains shown)
VH: QVQLQESGPGLVKPSQTLSLTCTVSGGSISSFNYYWSWIRHHPGKGLEWIGYIYYSGSTYSNPSLKSRVTISVDTSKNQFSLTLSSVTAADTAVYYCARGYNWNYFDYWGQGTLVTVSS
VL: not shown
notes: The unconjugated IgG2 form was used in flow cytometry; also called CR011 (anti-GPNMB)
